Laboratory results reported in paper PMC4803054 (Genes & Development, 2016).
Values belong to the binder of their own block, whether it stands above or below them.

Legend:
Experiment in all cases: pull-down
MHF complex (Mhf1-Mhf2) = MHF complex (Mhf1-Mhf2) (S. cerevisiae, UniProt Q3E835 1-90; Q3E829 1-80)
[1] = target: T1, Mte1 (GST tag cleaved off) (S. cerevisiae, UniProt P53227 1-271)
T1 sequence (looked up): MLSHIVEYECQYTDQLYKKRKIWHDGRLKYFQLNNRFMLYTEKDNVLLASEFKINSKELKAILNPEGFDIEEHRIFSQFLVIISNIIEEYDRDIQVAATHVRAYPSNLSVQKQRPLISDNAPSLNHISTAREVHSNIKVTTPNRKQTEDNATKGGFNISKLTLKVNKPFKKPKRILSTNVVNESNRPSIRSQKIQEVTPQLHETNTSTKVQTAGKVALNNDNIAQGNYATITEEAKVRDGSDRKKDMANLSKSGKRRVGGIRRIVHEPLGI

Mph1-MHF complex = Mph1-MHF complex (S. cerevisiae, UniProt P40562 1-993; Q3E835 1-90; Q3E829 1-80)

binding result (MHF complex (Mhf1-Mhf2)): binds
binding result [1]: binds
B1: MBP-tagged Mph1(754–993) (domain or fragment, S. cerevisiae, UniProt P40562 754-993, looked up)
chain: SNENPSKKRKIFKALDNLENDSTEEASSSLETEDEEVSDDNNVFIAEGQNGCQKDLETAIIRTGESLTTLKPLHNFERPNMALFVNDCGLPTKIEKNVKDIRGNQHNLEKEKSCTVDKNNMVLSLDDWNFFRNRYIPEGVSFDVEPNFVQYTKGVKVPHCHKVSKIITLFNDESNDNKKRTIDMNYTKCLARGMLRDEKKFVKVNDKSQVDNNSVNHDSSQSFTLSNAELDDILGSDSDF

binding result (Mph1-MHF complex): binds
B2: GST-Mte1 fragment 201-271 (domain or fragment)
chain: LHETNTSTKVQTAGKVALNNDNIAQGNYATITEEAKVRDGSDRKKDMANLSKSGKRRVGGIRRIVHEPLGI
